Measured values: article PMC11324738

How the values were obtained:
[1] = molecular target: endogenous LC3 (human cells), Q9GZQ8; assay: Proximity Ligation Assay; conditions: chain shown with the change; HeLa cells transfected with GPR50-FLAG constructs; antibodies against LC3 and FLAG; n = 178–208 cells per group from 3 independent experiments; parent: est. 25; read off a plot
[2] = molecular target: GFP-LC3, Q9GZQ8; assay: Co-immunoprecipitation; conditions: chain shown with the change; HEK293T cells co-transfected with GFP-LC3 and GPR50-FLAG constructs; IP anti-FLAG; n = 4 independent experiments; parent: est. 1.0; read off a plot
[3] = molecular target: recombinant LC3 protein, Q9GZQ8; assay: ELISA; conditions: chain shown with the change, recombinant LC3 coated on the plate, biotin-labeled synthetic peptide, read off a plot

response (DUO (+) spots/cell) [1]	ratio to parent [2]	response ([3]; peptide 1 µM, parent: est. 0.47)	response ([3]; peptide 2.5 µM, parent: est. 1.2)	response ([3]; peptide 5 µM, parent: est. 3.2)	response ([3]; peptide 10 µM, parent: est. 3.7)	response ([3]; peptide 20 µM, parent: est. 3.7)	response ([3]; peptide 40 µM, parent: est. 3.7)	Binder
5.5	0.65							GPR50-FLAG WT, Q13585 Y305A; W306A; T307A; I308A (protein) MGPTLAVPTPYGCIGCKLPQPEYPPALIIFMFCAMVITIVVDLIGNSMVILAVTKNKKLRNSGNIFVVSLSVADMLVAIYPYPLMLHAMSIGGWDLSQLQCQMVGFITGLSVVGSIFNIVAIAINRYCYICHSLQYERIFSVRNTCIYLVITWIMTVLAVLPNMYIGTIEYDPRTYTCIFNYLNNPVFTVTIVCIHFVLPLLIVGFCYVRIWTKVLAARDPAGQNPDNQLAEVRNFLTMFVIFLLFAVCWCPINVLTVLVAVSPKEMAGKIPNWLYLAAYFIAYFNSCLNAVIYGLLNENFRREAAAAFHAMRHPIIFFSGLISDIREMQEARTLARARAHARDQAREQDRAHACPAVEETPMNVRNVPLPGDAAAGHPDRASGHPKPHSRSSSAYRKSASTHHKSVFSHSKAASGHLKPVSGHSKPASGHPKSATVYPKPASVHFKADSVHFKGDSVHFKPDSVHFKPASSNPKPITGHHVSAGSHSKSAFSAATSHPKPTTGHIKPATSHAEPTTADYPKPATTSHPKPTAADNPELSASHCPEIPAIAHPVSDDSDLPESASSPAAGPTKPAASQLESDTIADLPDPTVVTTSTNDYHDVVVIDVEDDPDEMAV
		0.38 OD (562 nm)	0.35 OD (562 nm)	0.38 OD (562 nm)	0.4 OD (562 nm)	0.4 OD (562 nm)	0.5 OD (562 nm)	NAVIYGLLNENFRREAAAAFHAM [biotin-labeled synthetic GPR50 LIR peptide, a.a. 290-312 (WT), Q13585 Y305A; W306A; T307A; I308A]
